B1: GLTSCR2 (parent)
chain: FQRRNMIEPRERAKFKRKYKVKLV
B2: ZNF232 (parent)
chain: GKAYGWCSELIRHRRVHARKEPSH

Variants of: B1
Test: protein stability index of a GFP-peptide fusion (GPS, HEK-293T) (PSI 1-6); higher = more stable
Conditions: c terminus: a fixed tail appended
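Also: lentivirally expressed fusions sorted by FACS into six bins by GFP to DsRed ratio, PSI derived from sequencing read proportions per bin multiplied by bin number.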

Protein stability index: each site, then its substitutions
K22: S 1.94 | Y 2.08 | N 2.6 | D 2.27 | F 1.73 | I 1.27 | E 2.41 | M 2.37 | R 2.38 | C 1.51 | L 1.85 | V 2.03 | H 1.72
K20: A 3.25 | R 2.1 | L 2.08 | Y 1.65 | M 2.14 | N 2.19 | D 2.09 | H 2.62
Q2: N 2.42 | G 2.3 | R 2.62 | S 2.43 | A 1.99 | P 2.06 | E 2.3 | Y 2.08 | F 1.58 | M 2.7 | W 1.84 | D 2.35 | L 1.94 | K 2.21 | H 2.21 | I 2.08
P9: K 2.52 | L 1.78 | S 2.33 | G 1.71 | Q 2.38 | W 2.01 | Y 1.67 | R 2.5 | T 1.99 | I 2.4 | C 2.14
N5: G 2.57 | V 2.29 | H 1.88 | I 2.36 | Q 2.36 | T 1.88 | L 2.83 | F 1.59 | P 2.36 | K 2.42 | W 2.1 | Y 2.33 | E 3.05
L23: S 2.61 | W 2.15 | Y 2.46 | K 2.41 | P 2.12 | E 2.56 | M 1.69 | F 1.71 | C 2.73 | V 2.13 | H 2.31 | G 3.17 | Q 3.43
R12: C 2 | T 2.15 | E 2.5 | A 1.87 | V 1.5 | P 1.72 | D 2.31 | I 3.04 | S 1.84 | H 2.19 | K 2.41 | G 2.6 | F 1.47
F15: C 2.67 | I 2.51 | H 3.14 | A 2.65 | V 2.81 | Q 2.96 | S 3.08 | Y 2.7 | R 3.73 | W 2.12 | E 2.97 | T 2.66 | D 2.32
K14: Y 2.39 | V 2.17 | C 1.26 | Q 1.99 | L 1.82 | F 2.77 | E 2.74 | A 1.81 | N 2.02 | P 1.68 | I 2.5
R10: T 1.99 | C 3.03 | W 1.76 | I 2.11 | M 1.92 | F 2 | V 1.58 | N 1.63 | Q 1.53 | Y 2.17 | H 1.95 | G 2.12 | P 2.2 | E 1.98
Y19: E 3.15 | Q 2.87 | L 2.75 | F 2.52 | V 2.63 | A 2.46 | M 2.75 | P 2.74 | G 2.66 | C 2.65 | I 2.54 | K 3.86
R4: P 1.73 | I 2.14 | G 1.9 | H 2.13 | M 1.86 | Y 2.42 | S 2.35 | D 1.98 | W 1.96 | E 2 | A 2.21 | Q 2.85 | C 2.02 | L 2.51 | T 2.6
E11: K 2.41 | Q 2.25 | L 2.63 | G 2.4 | S 2.2 | R 2.23 | P 2.66 | F 2.37 | M 2.37 | A 2.54 | V 1.88 | C 2.36 | Y 1.91 | N 2.6
E8: Y 2.23 | I 2.02 | D 2.13 | Q 1.64 | N 2.3 | R 1.83 | C 3.15 | H 2.33 | L 2.27 | P 2.42
R3: A 2.8 | Y 1.6 | P 1.96 | Q 2.26 | M 2.68 | F 1.75 | C 2.38 | V 2.04 | N 2.66 | W 1.58 | L 2.37 | D 2.71 | I 2.17
A13: M 2.08 | F 1.64 | E 2.56 | R 2.72 | K 2.37 | D 1.7 | S 2.32 | W 1.61 | C 1.98 | Q 2.35 | H 2.74 | G 2.08
V24: S 2.62 | Q 2.62 | I 1.91 | A 2.96 | P 2.69 | H 2.15 | N 2.49 | F 2.54 | R 2.71 | W 1.31 | D 3.12 | G 2.45 | C 2.25 | Y 2.7
V21: E 2.46 | Y 2.61 | L 2.28 | P 2.33 | G 2.52 | H 2.79 | C 2.97 | M 2.34 | R 2.86 | K 3.29 | S 2.5 | I 2.35
R17: F 1.74 | I 2.32 | N 2.63 | E 2.24 | A 2.33 | Q 2.07 | S 2.77 | G 1.99 | Y 1.65 | D 2.27 | K 2.79 | W 2.1 | V 1.96
K16: R 2.73 | F 2.4 | P 1.28 | I 2.64 | Y 2.03 | S 2.42 | E 1.86 | H 2.32 | A 1.62 | W 2.7 | D 2.63 | V 1.86 | G 2.18 | N 2.48 | L 2.53
M6: Y 2.48 | I 2.25 | G 2.57 | L 1.63 | A 2.56 | P 2.25 | W 3.61 | E 3.08 | C 1.74 | V 2.14 | K 2.52 | S 3.25 | D 2.31 | Q 2.74 | F 1.93
F1: E 2.57 | V 2.81 | N 2.59 | I 3.03 | S 2.77 | L 3.01 | Q 2.99 | D 2.83 | W 2.41 | M 2.08
I7: G 2.35 | T 2.31 | Q 2.24 | W 1.9 | F 2.2 | C 2.78 | Y 1.92 | N 2.64 | R 2.46
K18: D 2.64 | H 2.29 | I 2.45 | T 2.24 | M 2.22 | Q 2.51 | P 1.92 | N 2.4 | W 2.3 | S 2.63

Variants of: B2
Test: as above
Conditions: c terminus: a fixed tail appended

Protein stability index of substitutions, site by site:
H24: C 2.78 | G 3.7 | P 3.08 | N 3.65 | D 3.61 | A 3.08 | E 2.44 | Y 2.46 | S 3.07 | V 3.54 | I 2.49 | F 2.65 | T 2.97 | R 3.15 | W 2.03 | M 2.5 | L 2.68 | Q 2.25 | K 3.55
S23: L 2.54 | G 3.32 | I 2.48 | R 2.93 | E 3.92 | F 2.43 | Q 2.98 | P 2.95 | K 3.49 | V 2.82 | Y 2.19 | N 3.05 | H 3.16 | T 3.03 | M 2.12 | W 1.76

— the supplement of paper PMC10567573
